# Assay results from PMC3017645 (Journal of molecular biology, 2010).
# B1: Mtw1p (natural protein, budding yeast (S. cerevisiae), UniProt P39731 1-289, looked up)
# chain: MSAPTMRSTSILTEHLGYPPISLVDDIINAVNEIMYKCTAAMEKYLLSKSKIGEEDYGEEIKSGVAKLESLLENSVDKNFDKLELYVLRNVLRIPEEYLDANVFRLENQKDLVIVDENELKKSEEKLREKVNDVELAFKKNEMLLKRVTKVKRLLFTIRGFKQKLNELLKCKDDVQLQKILESLKPIDDTMTLLTDSLRKLYVDSESTSSTEEVEALLQRLKTNGKQNNKDFRTRYIDIRTNNVLRKLGLLGDKEDEKQSAKPDARTQAGDIVSIDIEEPQLDLLDDVL
# B2: Dsn1p (natural protein, budding yeast (S. cerevisiae), UniProt P40568 1-576, looked up)
# chain: MSLEPTQTVSGTPPMLHQRTHKQVYPLRMETIPILESDSKATLQSNEPTQKDEEETEYFENKQSVSNLSPDLKFKRHKNKHIQGFPTLGERLDNLQDIKKAKRVENFNSSAPIADDNHSGDATANATANATANATANVNASAMPAPYMPYYYYYHPMNAPTPAMIPYPGSPMHSIMPNSSLQPFYSQPTAAGGPDMTTPQNISSSQQLLPAPQLFPYGSFHQQQLQQPHYIQRTRERKKSIGSQRGRRLSMLASQANGGSTIISPHKDIPEEDFYTVVGNASFGKNLQIRQLFNWCLMRSLHKLELKAKNQEEEGELEHLTKKSKLESTKAETDYVDPKRLAMVIIKEFVDDLKKDHIAIDWEDEEKYEDEDEEKILDNTENYDDTELRQLFQENDDDDDDDDEVDYSEIQRSRRKFSERRKALPKEPKKLLPNSKNVENTKNLSILTSKVNAIKNEVKEWAVTLDTSRPDLEWQELTSFSSQPLEPLSDTEEPDLAIADVETKLETKVDELRYQSHILNSHSLALNEITNSKVNKLNIETMRKISSETDDDHSQVINPQQLLKGLSLSFSKKLDL
# B3: Nsl1p (natural protein, budding yeast (S. cerevisiae), UniProt Q12143 1-216, looked up)
# chain: MSQGQSKKLDVTVEQLRSIYHQFHDILEEKTDLHLPKKEYDDDAVRREVQIQLQEFLLSAMTMASKSLEVVNADTVGKTVKQLIMESQEKYMEPFDLDLNEQVRKMYQEWEDETVKVAQLRQTGPAKINEVYNNSKDEYLAQLDGRIGVLQARMMQQQSADHDDSTDDADDHINWEHIKQDYVASLNELYQTQQDLPKVRYNVEKVKRLMDFLEED
# Target: T1, Nnf1p-6xHis (budding yeast (S. cerevisiae), UniProt P47149 1-201)
# T1 sequence (looked up): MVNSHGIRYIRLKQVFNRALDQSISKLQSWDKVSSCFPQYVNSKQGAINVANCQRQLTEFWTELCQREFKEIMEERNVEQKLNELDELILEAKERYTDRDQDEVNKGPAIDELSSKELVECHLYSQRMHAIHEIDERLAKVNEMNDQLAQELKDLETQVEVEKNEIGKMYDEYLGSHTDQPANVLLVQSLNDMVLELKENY
# Assay: co-purification of co-expressed subunits
binder,measurement,value
B1,stoichiometry N,1
B2,stoichiometry N,1
B3,stoichiometry N,1
